# Test results as given in patent publication US20150203577A1 (Chugai, published 2015).
# Numbering of substitutions follows the chain as printed.
# T1: mouse FcγRIII extracellular domain with C-terminal His tag (mouse, UniProt P08508 31-215)
# T1 construct: Made on the basis of NCBI NP-034318.2; also called mFcγRIII; mFcgRIII
# T1 chain: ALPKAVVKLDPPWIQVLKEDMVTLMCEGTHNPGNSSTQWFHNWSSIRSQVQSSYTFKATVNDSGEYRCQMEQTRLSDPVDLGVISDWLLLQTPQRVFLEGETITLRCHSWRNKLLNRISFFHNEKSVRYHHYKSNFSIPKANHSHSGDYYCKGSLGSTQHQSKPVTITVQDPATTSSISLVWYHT
# T2: mouse FcγRIII extracellular domain, C-terminal His tag (mouse, UniProt P08508 31-215)
# T2 construct: Whole entry named; also called mFcγRIII; mFcgRIII
# T2 chain: T1 chain
# T3: mouse FcγRII extracellular domain, C-terminal His tag (mouse, UniProt P08101 30-210)
# T3 construct: Whole entry named; also called mFcγRII; mFcgRII
# T3 sequence: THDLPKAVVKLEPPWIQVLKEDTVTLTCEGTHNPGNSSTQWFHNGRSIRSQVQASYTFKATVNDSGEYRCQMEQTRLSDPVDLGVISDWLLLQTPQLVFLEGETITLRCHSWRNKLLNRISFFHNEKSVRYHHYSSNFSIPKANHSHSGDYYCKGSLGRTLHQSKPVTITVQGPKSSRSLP
# T4: mouse FcγRII extracellular domain with C-terminal His tag (mouse, UniProt P08101 30-210)
# T4 construct: Made on the basis of NCBI NP-034317.1; also called mFcγRII; mFcgRII
# T4 sequence: T3 sequence
# B1: H237-mIgG1/MRAL-k0 (antibody)
# heavy: QVQLQESGPGLVKPSETLSLTCAVSGHSISHDHAWSWVRQPPGEGLEWIGFISYSGITNYNPSLQGRVTISRDNSKNTLYLQMNSLRAEDTAVYYCARSLARTTAMDYWGEGTLVTVSSAKTTPPSVYPLAPGSAAQTNSMVTLGCLVKGYFPEPVTVTWNSGSLSSGVHTFPAVLQSDLYTLSSSVTVPSSTWPSETVTCNVAHPASSTKVDKKIVPRDCGCKPCICTVPEVSSVFIFPPKPKDVLTITLTPKVTCVVVDISKDDPEVQFSWFVDDVEVHTAQTQPREEQFNSTFRSVSELPIMHQDWLNGKEFKCRVNSAAFPAPIEKTISKTKGRPKAPQVYTIPPPKEQMAKDKVSLTCMITDFFPEDITVEWQWNGQPAENYKNTQPIMDTDGSYFVYSKLNVQKSNWEAGNTFTCSVLHEGLHNHHTEKSLSHSPGK
# light: not shown
# notes: copies: 2 + 2
# B2: H237-MB476/MRAL-k0 (antibody, mouse IgG1, kappa)
# heavy: B1 heavy with T229Q, V230P, P231N, S234E, S235E
# light: not shown
# notes: copies: 2 + 2
# B3: H237-MB527/MRAL-k0 (antibody, mouse IgG1, kappa)
# heavy: B1 heavy with T229Q, V230P, P231N, S234E, S235E, S294L, N320D
# light: not shown
# notes: copies: 2 + 2
# B4: H237-MB533/MRAL-k0 (antibody, mouse IgG1, kappa)
# heavy: B1 heavy with T229Q, V230P, P231N, S234E, S235E, S294L, N320D, A322D
# light: not shown
# notes: copies: 2 + 2
# B5: H237-MB534/MRAL-k0 (antibody, mouse IgG1, kappa)
# heavy: B1 heavy with T229Q, V230P, P231N, S234E, S235E, S294L, N320D, K330R
# light: not shown
# notes: copies: 2 + 2
# B6: H237-MB526/MRAL-k0 (antibody, mouse IgG1, kappa)
# heavy: B1 heavy with T229Q, V230P, P231N, S234E, S235E, S294L
# light: not shown
# notes: copies: 2 + 2
# B7: H237-MB530/MRAL-k0 (antibody, mouse IgG1, kappa)
# heavy: B1 heavy with T229Q, V230P, P231N, S234E, S235E, N320D, A322D
# light: not shown
# notes: copies: 2 + 2
# B8: H237-MB536/MRAL-k0 (antibody, mouse IgG1, kappa)
# heavy: B1 heavy with T229Q, V230P, P231N, S234E, S235E, N320D, A322D, K330R
# light: not shown
# notes: copies: 2 + 2
# B9: H237-MB531/MRAL-k0 (antibody, mouse IgG1, kappa)
# heavy: B1 heavy with T229Q, V230P, P231N, S234E, S235E, N320D, K330R
# light: not shown
# notes: copies: 2 + 2
# B10: H237-MB528/MRAL-k0 (antibody, mouse IgG1, kappa)
# heavy: B1 heavy with T229Q, V230P, P231N, S234E, S235E, S294L, A322D
# light: not shown
# notes: copies: 2 + 2
# B11: H237-MB548/MRAL-k0 (antibody, mouse IgG1, kappa)
# heavy: B1 heavy with T229E, V230P, P231N, S234E, S235M, N320D, A322D, K330R
# light: not shown
# notes: copies: 2 + 2
# B12: H237-MB544/MRAL-k0 (antibody, mouse IgG1, kappa)
# heavy: B1 heavy with T229E, V230P, P231N, S234E, S235M, A322D, K330R
# light: not shown
# notes: copies: 2 + 2
# B13: H237-MB549/MRAL-k0 (antibody, mouse IgG1, kappa)
# heavy: B1 heavy with T229E, V230P, P231N, S234E, S235M, S294L, N320D, A322D, K330R
# light: not shown
# notes: copies: 2 + 2
# B14: H237-MB532/MRAL-k0 (antibody, mouse IgG1, kappa)
# heavy: B1 heavy with T229Q, V230P, P231N, S234E, S235E, A322D, K330R
# light: not shown
# notes: copies: 2 + 2
# B15: H237-MB529/MRAL-k0 (antibody, mouse IgG1, kappa)
# heavy: B1 heavy with T229Q, V230P, P231N, S234E, S235E, S294L, K330R
# light: not shown
# notes: copies: 2 + 2
# B16: H237-MB535/MRAL-k0 (antibody, mouse IgG1, kappa)
# heavy: B1 heavy with T229Q, V230P, P231N, S234E, S235E, S294L, A322D, K330R
# light: not shown
# notes: copies: 2 + 2
# B17: H237-MB542/MRAL-k0 (antibody, mouse IgG1, kappa)
# heavy: B1 heavy with T229E, V230P, P231N, S234E, S235M, N320D, A322D
# light: not shown
# notes: copies: 2 + 2
# B18: H237-MB537/MRAL-k0 (antibody, mouse IgG1, kappa)
# heavy: B1 heavy with T229Q, V230P, P231N, S234E, S235E, S294L, N320D, A322D, K330R
# light: not shown
# notes: copies: 2 + 2
# B19: H237-MB594/MRAL-k0 (antibody, mouse IgG1, kappa)
# heavy: B1 heavy with T229E, V233E, S234E
# light: not shown
# notes: copies: 2 + 2
# B20: H237-MB703/MRAL-k0 (antibody, mouse IgG1, kappa)
# heavy: B1 heavy with T229E, V230A, S234E, S235N
# light: not shown
# notes: copies: 2 + 2
# B21: H237-MB702/MRAL-k0 (antibody, mouse IgG1, kappa)
# heavy: B1 heavy with V230A, P231Y, S234E, S235N
# light: not shown
# notes: copies: 2 + 2
# B22: H237-MB700/MRAL-k0 (antibody, mouse IgG1, kappa)
# heavy: B1 heavy with T229E, V233E, S234E, S235Y
# light: not shown
# notes: copies: 2 + 2
# B23: H237-MB696/MRAL-k0 (antibody, mouse IgG1, kappa)
# heavy: B1 heavy with T229E, P231N, S234E, S235F
# light: not shown
# notes: copies: 2 + 2
# B24: H237-MB698/MRAL-k0 (antibody, mouse IgG1, kappa)
# heavy: B1 heavy with T229E, V233E, S234E, S235L
# light: not shown
# notes: copies: 2 + 2
# B25: H237-MB474/MRAL-k0 (antibody, mouse IgG1, kappa)
# heavy: B1 heavy with T229I, V230P, P231A, S234E, S235E
# light: not shown
# notes: copies: 2 + 2
# B26: H237-MB473/MRAL-k0 (antibody, mouse IgG1, kappa)
# heavy: B1 heavy with T229E, V230P, P231A, S234E, S235E
# light: not shown
# notes: copies: 2 + 2
# Target: T1, mouse FcγRIII extracellular domain with …
# Assay: SPR Biacore T200
row,Binder,Kd [nM]
1,B1,282

# Target: T2, mouse FcγRIII extracellular domain, …
# Assay: SPR (Biacore T200), 1:1 fit
# Description: (§1) Each altered antibody was analyzed for its interaction with each Fcγ receptor prepared above using Biacore T100 (GE Healthcare Japan Corp.), Biacore T200 (GE Healthcare Japan Corp.), Biacore A100, or Biacore 4000. The running buffer used was HBS-EP+ (GE Healthcare Japan Corp.). The assay temperature was set to 25° C. The sensor chips used were chips prepared by immobilizing Protein L (ACTIGEN or BioVision) onto Series S Sensor Chip CM5 (GE Healthcare Japan Corp.) or Series S Sensor Chip CM4 (GE Healthcare Japan Corp.) by the amine coupling method.
# (§2) In order to calculate the KD value of each altered antibody for FcγR, kinetic analysis was conducted according to the following method: first, the antibody of interest was captured onto any of these chips and allowed to interact with mFcγR diluted with a running buffer. For the obtained sensorgram, the assay results were globally fit into the 1:1 Langmuir binding model using Biacore Evaluation Software to calculate an association rate constant ka (L/mol/s) and a dissociation rate constant kd (1/s). From these values, the dissociation constant KD (mol/L) was calculated.
row,Binder,Kd [nM]
1,B2,107
2,B3,51
3,B4,39
4,B5,8.34
5,B6,33
6,B7,35.1
7,B8,36.8
8,B9,85
9,B10,19.3
10,B11,71.7
11,B12,87.2
12,B13,52.1
13,B14,45.4
14,B15,47.6
15,B16,33.2
16,B17,83.3
17,B18,31.7

# Target: T3, mouse FcγRII extracellular domain, …
# Assay: SPR (Biacore T200), 1:1 fit
# Description: as §1, §2
row,Binder,Kd [nM]
1,B2,0.804
2,B3,0.768
3,B4,0.534
4,B5,0.499
5,B6,0.904
6,B7,0.337
7,B8,0.53
8,B9,0.918
9,B10,0.56
10,B11,0.589
11,B12,0.76
12,B13,1
13,B14,0.639
14,B15,0.745
15,B16,0.498
16,B17,0.547
17,B18,0.412

# Target: T2, mouse FcγRIII extracellular domain, …
# Assay: SPR (Biacore T200); KD of H237-mIgG1/MRAL-k0 / KD of variant
row,Binder,relative mFcγRIII-binding activity (mIgG1 = 1) [fold]
1,B19,0.1

# Target: T3, mouse FcγRII extracellular domain, …
# Assay: as above
row,Binder,relative mFcγRII-binding activity (mIgG1 = 1) [fold]
1,B19,1.85

# Target: T2, mouse FcγRIII extracellular domain, …
# Assay: as above
# Remark: another data set of the same source
# Text: (§3) The antibody H chain variable region used was the variable region H237 (SEQ ID NO: 1) of the H chain VH3-IgG1 of the anti-IL-6 receptor antibody Fv4-IgG1 described in WO2009/125825. The antibody L chain commonly used was the L chain MRAL-k0 (SEQ ID NO: 2) of the anti-IL-6 receptor antibody tocilizumab. The aforementioned 7 variants were used as templates to substitute the amino acids at the alteration sites by the amino acids before the alteration. These variants were expressed and purified by the method of Reference Example 1 and evaluated for their binding to mFcγRII and mFcγRIII by the method of Reference Example 2 using Biacore T200.
# as §1
row,Binder,relative mFcγRIII-binding activity (mIgG1 = 1) [fold]
1,B20,0.104
2,B21,0.145
3,B22,0.044
4,B23,0.094
5,B19,0.057
6,B24,0.024

# Target: T3, mouse FcγRII extracellular domain, …
# Assay: as above
# Remark: another data set of the same source
# Text: as §3, §1
row,Binder,relative mFcγRII-binding activity (mIgG1 = 1) [fold]
1,B20,0.943
2,B21,0.96
3,B22,0.559
4,B23,0.4
5,B19,1.3
6,B24,0.194

# Target: T1, mouse FcγRIII extracellular domain with …
# Assay: SPR Biacore T200
# Remark: another data set of the same source
# Description: as §1, §2
row,Binder,Kd [nM]
1,B1,282
2,B25,247
3,B26,196

# Target: T4, mouse FcγRII extracellular domain with …
# Assay: SPR Biacore T200
# Description: as §1, §2
row,Binder,Kd [nM]
1,B25,4.89
2,B26,3.65

# Target: T1, mouse FcγRIII extracellular domain with …
# Assay: SPR Biacore T200
# Remark: another data set of the same source
# Description: as §1, §2
row,Binder,relative mFcγRIII-binding activity (mIgG1 = 1)
1,B25,1.1
2,B26,1.4

# Target: T4, mouse FcγRII extracellular domain with …
# Assay: SPR Biacore T200
# Remark: another data set of the same source
# Description: as §1, §2
row,Binder,relative mFcγRII-binding activity (mIgG1 = 1)
1,B25,42.9
2,B26,57.6

# Target: T2, mouse FcγRIII extracellular domain, …
# Assay: SPR (Biacore T200); KD of H237-mIgG1/MRAL-k0 / KD of variant
# Remark: another data set of the same source
# Description: as §1, §2
row,Binder,relative mFcγRIII-binding activity (mIgG1 = 1) [fold]
1,B2,2.6
2,B3,5.5
3,B4,7.2
4,B5,33.8
5,B6,8.5
6,B7,8
7,B8,7.7
8,B9,3.3
9,B10,14.6
10,B11,3.9
11,B12,3.2
12,B13,5.4
13,B14,6.2
14,B15,5.9
15,B16,8.5
16,B17,3.4
17,B18,8.9
